In the oligonucleotide strings, read from the 5' end, every base follows the letter of its sugar. An asterisk marks phosphorothioate; unmarked linkages are phosphodiester. Other units and linkages are bracketed, terminal groups are in braces. A string of capitals states the bases alone. m = 2'-O-methyl; r = 2'-OH (RNA)
How the values were obtained:
PCSK9 gene [1] = test: PCSK9 gRNA/SpCas9 editing in primary human hepatocytes (Tables 2, 4); assay type: cell-based; conditions: SpCas9 mRNA MS002 1:1 by weight; for Human Primary Hepatocyte Editing % 100: 100 ng/RNA/mL; for Human Primary Hepatocyte Editing % 500: 500 ng/RNA/mL; for Human Primary Hepatocyte Editing % 2500: 2500 ng/RNA/mL
Outline: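 Primary human hepatocytes co-transfected with PCSK9 gRNA plus SpCas9 mRNA (1:1 by weight) at 2500, 500 or 100 ng RNA/mL, or 2500–250 ng/mL for tracr-modified guides. Editing at the target site read by amplicon next-generation sequencing of extracted genomic DNA.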

PCSK9 gene [2] = test: PCSK9 gRNA/SpCas9 editing in primary cynomolgus hepatocytes (Tables 2, 22); assay type: cell-based, cynomolgus monkey; conditions: SpCas9 mRNA MS002 1:1 by weight; for Cyno Primary Hepatocyte Editing % 100: 100 ng/RNA/mL; for Cyno Primary Hepatocyte Editing % 500: 500 ng/RNA/mL; for Cyno Primary Hepatocyte Editing % 2500: 2500 ng/RNA/mL

Row | Molecule | Human Primary Hepatocyte Editing % 100 (PCSK9 gene [1]) [%] | Human Primary Hepatocyte Editing % 500 (PCSK9 gene [1]) [%] | Human Primary Hepatocyte Editing % 2500 (PCSK9 gene [1]) [%] | Cyno Primary Hepatocyte Editing % 100 (PCSK9 gene [2]) [%] | Cyno Primary Hepatocyte Editing % 500 (PCSK9 gene [2]) [%] | Cyno Primary Hepatocyte Editing % 2500 (PCSK9 gene [2]) [%]
1 | GA218: PCSK9 gRNA; protospacer CGCTGACCACCCCTGCCAGG (SEQ ID NO: 212) (nucleic acid, sugars from the 5' end m3 r94 m3, linkages s3 o93 s3 (s phosphorothioate, o phosphodiester), T or U not given here) guide: CGCUGACCACCCCUGCCAGGGUUUUAGAGCUAGAAAUAGCAAGUUAAAAUAAGGCUAGUCCGUUAUCAACUUGAAAAAGUGGCACCGAGUCGGUGCUUUU | 3.81 | 8.96 | 31.71 | 5.42 | 19.95 | 58.66
2 | GA215: PCSK9 gRNA; protospacer CAGCGGCCGGGATGCCGGCG (SEQ ID NO: 209) (nucleic acid, sugars from the 5' end m3 r94 m3, linkages s3 o93 s3 (s phosphorothioate, o phosphodiester), T or U not given here) guide: CAGCGGCCGGGAUGCCGGCGGUUUUAGAGCUAGAAAUAGCAAGUUAAAAUAAGGCUAGUCCGUUAUCAACUUGAAAAAGUGGCACCGAGUCGGUGCUUUU | 0.13 | 1.01 | 4.94 | – | 1.07 | 7.52
3 | GA207: PCSK9 gRNA; protospacer GGAAATCGAGGGCAGGGTCA (SEQ ID NO: 201) (nucleic acid, sugars from the 5' end m3 r94 m3, linkages s3 o93 s3 (s phosphorothioate, o phosphodiester), T or U not given here) guide: GGAAAUCGAGGGCAGGGUCAGUUUUAGAGCUAGAAAUAGCAAGUUAAAAUAAGGCUAGUCCGUUAUCAACUUGAAAAAGUGGCACCGAGUCGGUGCUUUU | 0.84 | 3.46 | 20.79 | 1.05 | 2.72 | 19.16
4 | GA212: PCSK9 gRNA; protospacer CGGGATGCCGGCGTGGCCAA (SEQ ID NO: 206) (nucleic acid, sugars from the 5' end m3 r94 m3, linkages s3 o93 s3 (s phosphorothioate, o phosphodiester), T or U not given here) guide: CGGGAUGCCGGCGUGGCCAAGUUUUAGAGCUAGAAAUAGCAAGUUAAAAUAAGGCUAGUCCGUUAUCAACUUGAAAAAGUGGCACCGAGUCGGUGCUUUU | 1.17 | 5.59 | 12.45 | 1.96 | 16.53 | 54.89
5 | GA217: PCSK9 gRNA; protospacer GTGGTCAGCGGCCGGGATGC (SEQ ID NO: 211) (nucleic acid, sugars from the 5' end m3 r94 m3, linkages s3 o93 s3 (s phosphorothioate, o phosphodiester), T or U not given here) guide: GUGGUCAGCGGCCGGGAUGCGUUUUAGAGCUAGAAAUAGCAAGUUAAAAUAAGGCUAGUCCGUUAUCAACUUGAAAAAGUGGCACCGAGUCGGUGCUUUU | 0.77 | 2.75 | 15.31 | 2.6 | 10.2 | 39.21
6 | GA209: PCSK9 gRNA; protospacer CTTGGCAGTTGAGCACGCGC (SEQ ID NO: 203) (nucleic acid, sugars from the 5' end m3 r94 m3, linkages s3 o93 s3 (s phosphorothioate, o phosphodiester), T or U not given here) guide: CUUGGCAGUUGAGCACGCGCGUUUUAGAGCUAGAAAUAGCAAGUUAAAAUAAGGCUAGUCCGUUAUCAACUUGAAAAAGUGGCACCGAGUCGGUGCUUUU | 0.02 | 8.76 | 33.23 | 3.59 | 13.96 | 40.78
7 | GA208: PCSK9 gRNA; protospacer CCAGCATACAGAGTGACCAC (SEQ ID NO: 202) (nucleic acid, sugars from the 5' end m3 r94 m3, linkages s3 o93 s3 (s phosphorothioate, o phosphodiester), T or U not given here) guide: CCAGCAUACAGAGUGACCACGUUUUAGAGCUAGAAAUAGCAAGUUAAAAUAAGGCUAGUCCGUUAUCAACUUGAAAAAGUGGCACCGAGUCGGUGCUUUU | 1.38 | 5.72 | 25.76 | 1.15 | 6.01 | 25.07
8 | GA213: PCSK9 gRNA; protospacer CGTGCTCAACTGCCAAGGGA (SEQ ID NO: 207) (nucleic acid, sugars from the 5' end m3 r94 m3, linkages s3 o93 s3 (s phosphorothioate, o phosphodiester), T or U not given here) guide: CGUGCUCAACUGCCAAGGGAGUUUUAGAGCUAGAAAUAGCAAGUUAAAAUAAGGCUAGUCCGUUAUCAACUUGAAAAAGUGGCACCGAGUCGGUGCUUUU | 2.17 | 8.77 | 24.28 | 2.73 | 16.35 | 45.22
9 | GA159: PCSK9 gRNA; protospacer GCGTTCCGAGGAGGACGGCC (SEQ ID NO: 153) (nucleic acid) guide: mG*mC*mG*rUrUrCrCrGrArGrGrArGrGrArCrGrGrCrCrGrUrUrUrUrArGrArGrCrUrArGrArArArUrArGrCrArArGrUrUrArArArArUrArArGrGrCrUrArGrUrCrCrGrUrUrArUrCrArArCrUrUrGrArArArArArGrUrGrGrCrArCrCrGrArGrUrCrGrGrUrGrCrU*mU*mU*mU | 1.35 | 3.74 | 14.68 | 1.19 | 3.69 | 12.21
10 | GA211: PCSK9 gRNA; protospacer TGCGCGTGCTCAACTGCCAA (SEQ ID NO: 205) (nucleic acid, sugars from the 5' end m3 r94 m3, linkages s3 o93 s3 (s phosphorothioate, o phosphodiester), T or U not given here) guide: UGCGCGUGCUCAACUGCCAAGUUUUAGAGCUAGAAAUAGCAAGUUAAAAUAAGGCUAGUCCGUUAUCAACUUGAAAAAGUGGCACCGAGUCGGUGCUUUU | 1.31 | 10.29 | 38.07 | 1.01 | 8.3 | 28.63
11 | GA214: PCSK9 gRNA; protospacer CCTTGGCCACGCCGGCATCC (SEQ ID NO: 208) (nucleic acid, sugars from the 5' end m3 r94 m3, linkages s3 o93 s3 (s phosphorothioate, o phosphodiester), T or U not given here) guide: CCUUGGCCACGCCGGCAUCCGUUUUAGAGCUAGAAAUAGCAAGUUAAAAUAAGGCUAGUCCGUUAUCAACUUGAAAAAGUGGCACCGAGUCGGUGCUUUU | 1.94 | 6.28 | 22.92 | 3.06 | 14.84 | 50.35
12 | GA216: PCSK9 gRNA; protospacer CCGGGATGCCGGCGTGGCCA (SEQ ID NO: 210) (nucleic acid, sugars from the 5' end m3 r94 m3, linkages s3 o93 s3 (s phosphorothioate, o phosphodiester), T or U not given here) guide: CCGGGAUGCCGGCGUGGCCAGUUUUAGAGCUAGAAAUAGCAAGUUAAAAUAAGGCUAGUCCGUUAUCAACUUGAAAAAGUGGCACCGAGUCGGUGCUUUU | 0.95 | 3.7 | 14.65 | 1.77 | 4.97 | 37.79
13 | GA210: PCSK9 gRNA; protospacer CTGCGCGTGCTCAACTGCCA (SEQ ID NO: 204) (nucleic acid, sugars from the 5' end m3 r94 m3, linkages s3 o93 s3 (s phosphorothioate, o phosphodiester), T or U not given here) guide: CUGCGCGUGCUCAACUGCCAGUUUUAGAGCUAGAAAUAGCAAGUUAAAAUAAGGCUAGUCCGUUAUCAACUUGAAAAAGUGGCACCGAGUCGGUGCUUUU | 0.04 | 5.86 | 14.3 | 4.5 | 19.72 | 54.88

Reference: patent US20250152746A1, “BASE EDITING OF ANGPTL3 AND METHODS OF USING SAME FOR TREATMENT OF DISEASE” (Verve Therapeutics, Inc., priority 2020, published 2025)
